In patent publication US12139542B2, “Inhibitors of aortic carboxypeptidase-like protein (ACLP)” (TRUSTEES OF BOSTON UNIVERSITY, priority 2014, dated 2024):
One block for each molecule: values may come before it.

Tests used:
[1] = system: ACLP-induced myofibroblast differentiation; assay: TGFβ receptor-Fc decoy block of ACLP-induced SMA and SM-MHC expression in human lung fibroblasts; type: cell-based; settings: human lung fibroblast cells with rACLP, 48 hours
ACLP signaling (pSmad3) = assay: TGFβ receptor-Fc decoy block of rACLP-induced pSmad3 in IMR90 fibroblasts; type: cell-based; settings: IMR90 human lung fibroblast cells, 90 mins
TGFβ Receptor II (TβRII) = molecular target: T1, TGFβ Receptor II (TβRII) (Mus musculus, UniProt Q62312); assay: ACLP binding assay: biotinylated rACLP on streptavidin plate incubated with TβRII Fc
T1 construct: contains the extracellular domain of mouse TβRII fused to the Fc domain of human IgG; purchased R&D
T1 sequence (Q62312 24-166 limits assumed): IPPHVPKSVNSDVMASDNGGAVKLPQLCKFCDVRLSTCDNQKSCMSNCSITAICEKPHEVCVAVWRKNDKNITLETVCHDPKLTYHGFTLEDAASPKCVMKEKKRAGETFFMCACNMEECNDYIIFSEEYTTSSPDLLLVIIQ
Description: ACLP binding assays. To determine if ACLP binds to TGFβ Receptor II (TORII), ACLP was biotinylated using an EZ-Link Sulfo-NHS-LC-Biotin kit (Thermo Scientific 21327) according to manufacturer's instructions. Briefly, rACLP (0.267 nM) was incubated with 20 fold molar excess of biotin for 30 min at room temperature. The protein was then dialyzed back into DPBS overnight. Biotinylated ACLP (1 μg/well) was immobilized on a PIERCE™ Streptavidin coated High-Binding Capacity Plate (Thermo-Scientific PI-15500) overnight at 4° C. in binding buffer made up of PBS with Mg^2+, Ca^2+, 0.1% BSA, and 0.05% Tween 20). The next day, the plates were washed with binding buffer, blocked with the same buffer containing 1% BSA at room temperature for 1 h, followed by incubation with increasing amounts of TβRII Fc (0, 10, 100, 1000 ng). Binding was detected with Human-IgG-HRP (GE Healthcare Life Sciences) followed by incubation with 3,3′,5,5′-Tetramethylbenzidine (TMB, eBioscience). The reaction was quenched with 2 M H2SO4 and absorbance at 450 nm was measured on the BioTek Synergy HT system.
ACLP binds to the TGFβ-receptor II. […] The TβRII Fc chimera contains the extracellular domain of mouse TβRII fused to the Fc domain of human IgG and has been used as a global inhibitor of TGFβ (6).

[2] = system: TGFβ signaling activity (PAI-1 promoter luciferase); assay: MLEC-TGFβ activity assay (PAI-1 promoter luciferase reporter); type: cell-based, mink; settings: MLEC-TGFβ cells, treated overnight in low serum media
Description: Cell Treatments. IMR90 human lung fibroblasts (ATCC) and AD293 cells (Stratagene) were grown in DMEM supplemented with 10% FBS and 1% penicillin/streptomycin and incubated in a 5% CO2 atmosphere at 37° C. Mink lung epithelial cells stably transfected with the plasminogen activator inhibitor 1 (PAI-1) reporter construct driving luciferase expression (MLEC-TGFβ) (2) were grown in DMEM supplemented with 10% FBS and 1% penicillin/streptomycin, maintained in 250 μg/ml G418, and incubated in a 5% CO2 atmosphere at 37° C. IMR90 cells and MLEC-TGFβ cells were generally treated for 30 min, 24 h, or 48 h in low serum media containing 0.5% FBS and 1% penicillin/streptomycin and incubated in a 5% CO2 atmosphere at 37° C. Cells were treated with 3.75 μg/ml (approximately 30 nM) rACLP (full length, Tsp, or C-terminal) or 1 nM TGFβ (R&D) (as a positive control), except where indicated. Cells treated for 30 min were serum starved in low serum media overnight preceding treatment. MLEC-TGFβ activity assay. To measure TGFβ signaling activity, 1×10^4 MLEC-TGFβ cells/well were plated on white 96-well cell culture treated plates and allowed to adhere overnight. […] Luciferase activity was measured on an auto-injecting BioTek Synergy HT plate reader using 50 μl of luciferase assay substrate (Promega).

[3] = system: IMR90 human lung fibroblast cells; assay: SMA and collagen I protein expression in IMR90 fibroblasts treated with recombinant ACLP proteins (Western blot); type: cell-based; settings: IMR90, low serum media, 3.75 μg/ml (~30 nM) protein, 48 h, vs control cells
Description: Cell Treatments. IMR90 human lung fibroblasts (ATCC) and AD293 cells (Stratagene) were grown in DMEM supplemented with 10% FBS and 1% penicillin/streptomycin and incubated in a 5% CO2 atmosphere at 37° C. Mink lung epithelial cells stably transfected with the plasminogen activator inhibitor 1 (PAI-1) reporter construct driving luciferase expression (MLEC-TGFβ) (2) were grown in DMEM supplemented with 10% FBS and 1% penicillin/streptomycin, maintained in 250 μg/ml G418, and incubated in a 5% CO2 atmosphere at 37° C.
(§1) IMR90 cells and MLEC-TGFβ cells were generally treated for 30 min, 24 h, or 48 h in low serum media containing 0.5% FBS and 1% penicillin/streptomycin and incubated in a 5% CO2 atmosphere at 37° C. Cells were treated with 3.75 μg/ml (approximately 30 nM) rACLP (full length, Tsp, or C-terminal) or 1 nM TGFβ (R&D) (as a positive control), except where indicated. Cells treated for 30 min were serum starved in low serum media overnight preceding treatment.
Recombinant ACLP induces myofibroblast gene and protein expression. To further define the role of ACLP in the fibroblast to myofibroblast differentiation process, IMR90 human lung fibroblast cells were treated with rACLP. […] IMR90 cells were grown in media containing 3.75 μg/ml (30 nM) rACLP or 1 nM TGFβ as a positive control (FIG. 2A). […] These findings indicate that ACLP promotes the fibroblast to myofibroblast differentiation because it stimulates expression of SMA and collagen 1(3).
The N-terminal domain of ACLP promotes myofibroblast marker protein expression. Because the inventors discovered that the N-terminal Tsp motifs of ACLP (e.g. the PFD) is the domain responsible for promoting TGFβ signaling, the inventors next assessed which domain of ACLP is responsible for increased SMA and collagen I expression in lung myofibroblasts. IMR90 lung fibroblasts were treated in low serum media containing equal molar amounts of full-length protein, the pro-fibrotic domain (PFD) of ACLP, and C-terminal ACLP (˜30 nM) for 48 h (FIG. 7).

[4] = system: Smad3 phosphorylation (canonical TGFβ signaling); assay: Smad3 phosphorylation in serum starved IMR90 fibroblasts (Western blot); type: cell-based, human; settings: serum starved IMR90, ~30 nM protein, 30 min, low serum media
Description: as §1
rACLP stimulates canonical TGFβ signaling (Published Tumelty et al JBC 2014). Because ACLP increases TGFβ signaling in a reporter assay, the role of ACLP in canonical TGFβ signaling was investigated in detail. In pulmonary fibroblasts, TGFβ promotes the phosphorylation of Smad3 which then binds to Smad4 and translocates into the nucleus to promote transcription of myofibroblast marker genes (4,5). Therefore, the effects of ACLP on Smad3 phosphorylation were measured. Serum starved IMR90 cells were treated with rACLP for 15, 30, 45, or 60 min, or 24 h (FIG. 3) (3).
Serum starved IMR90 human lung fibroblasts were treated with equivalent molar amounts (˜30 nM) of purified full-length, Tsp repeat domain, or C-terminal protein for 30 min in low serum media (FIG. 6).

ACLP-induced SM-MHC expression [1]: decreases
ACLP-induced SMA expression [1]: decreases
pSmad3 expression in the presence of mouse rACLP (ACLP signaling (pSmad3)): decreases pSmad3 expression
binding to streptavidin wells without ACLP (TGFβ Receptor II (TβRII); control wells without ACLP): did not bind
amount that inhibited ACLP binding to TGFβ-RII in vitro (TGFβ Receptor II (TβRII); in vitro): at least 100 ng
B1: TβRII Fc: extracellular domain of mouse TβRII fused to the Fc domain of human IgG (R&D); exemplary decoy ACLP inhibitor (protein)
chain: T1 sequence (Q62312 24-166 limits assumed)
modifications: left off: a dimerising Fc or GST

amount that stimulated luciferase activity [2]: ≤ 5 µg/mL
B2: Tsp repeat domain: recombinant N-terminal Tsp repeat domain of mouse ACLP, amino acids 26-373, myc-His tagged (protein)
chain: QTVLTDDEIEEFLEGFLSELETQSPPREDDVEVQPLPEPTQRPRKSKAGGKQRADVEVPPEKNKDKEKKGKKDKGPKATKPLEGSTRPTKKPKEKPPKATKKPKEKPPKATKKPKEKPPKATKKPKEKPPKATKRPSAGKKFSTVAPLETLDRLLPSPSNPSAQELPQKRDTPFPNAWQGQGEETQVEAKQPRPEPEEETEMPTLDYNDQIEKEDYEDFEYIRRQKQPRPTPSRRRLWPERPEEKTEEPEERKEVEPPLKPLLPPDYGDSYVIPNYDDLDYYFPHPPPQKPDVGQEVDEEKEEMKKPKKEGSSPKEDTEDKWTVEKNKDHKGPRKGEELEEEWAPVEK
modifications: left off: small tags and cut ends
notes: recombinant N-terminal Tsp repeat domain of mouse ACLP, amino acids 26-373, myc-His tagged
SMA protein expression [3]: promoted an increase
collagen protein expression [3]: promoted an increase
Smad3 phosphorylation [4]: stimulated Smad3 phosphorylation
